The numbers were not newly measured in paper PMC5081098, which cites them from elsewhere.

The target of this series is CCL21 (Homo sapiens) (UniProt O00585).
Chain of UniProt O00585 (O00585 24-134): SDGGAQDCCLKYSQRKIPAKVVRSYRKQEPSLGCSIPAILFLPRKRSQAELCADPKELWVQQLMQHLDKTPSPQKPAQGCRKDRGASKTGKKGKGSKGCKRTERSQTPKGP

In the case of podoplanin (from UniProt Q86YL7), the Kd is 70 nM.
